Tested on: intracellular proteome of ENR+CD and ENR organoids
Assay: LC-MS/MS TMT proteomics of ENR+CD versus ENR organoids
Type: cell-based, C57BL/6 mice
Conditions: for Average logFC: ENR+CD versus ENR organoids, sample pairs in aggregate (n=4, 2 technical replicates from two biological donors); for M1-1 Log2 Median Normalized / M1-2 Log2 Median Normalized / M2-1 Log2 Median Normalized / M2-2 Log2 Median Normalized: protein abundance ratio ENR+CD versus ENR organoids, LC-MS/MS TMT proteomics; for M1-1 Log2 Median Normalized: sample pair M1-1; for M1-2 Log2 Median Normalized: sample pair M1-2; for M2-1 Log2 Median Normalized: sample pair M2-1; for M2-2 Log2 Median Normalized: sample pair M2-2; for change: up = enriched in ENR+CD, down = enriched in ENR, FDR<0.05 and log fold change cut-off

B1: Q920F6 (protein, UniProt Q920F6 1-1248, looked up)
chain: MGHLELLLVENFKSWRGRQVIGPFKRFTCIIGPNGSGKSNVMDALSFVMGEKTTNLRVKNIQELIHGAHTGKPVSSSASVTIIYIEDSGEEKTFTRIIRGGCSEYHFGDKPVSRSVYVAQLENIGIIVKAQNCLVFQGTVESISMKKPKERTQFFEEISTSGEFIGEYEAKKKKLQKAEEDAQFHFNVKKNVAAERKHAKIEKEEAEHYQNLLEELKINKIQLMLFQLYYNEEKINVLNTELEQMDGNLSVVKDTLSHHENIFKAKKKDYGMLTRQLQQTAKELKSVEAILNQKRPQYIKAKENTSHHLKKLDLSKKLITDNEKQCSKQEDGIRALVAELADLDRAWKSFEKQMEEKILQKGRDIELENSQLDRYKLLKEQVRRKVGIMTQQLEKLQWEQKAEKERLAFEKRRHGDTQGNLKQIKEQIEEHKKRIEKLEEYTKTCMDCLEDKKQQEEALKKEIENTKSRMSEVNEELSLIRNELQNAGIDNHEGKRQQKRAEVLEHLKRLYPDSVFGRLLDLCHPIHKKYQLAVTKLFGRYMVAIVVASEKIAKDCIRFLKAERAEPETFLALDYLDIKPINERLREIKGCKMMIDVIKTQFPQLKKVIQFVCGNGLVCETVEEARHIAFGGPERRKAVALDGTLFLKSGVISGGSSDLKHKALCWDEKELHNLRDKRSQLVQELKELMKTLRKETDLKQIQTLVQGTNTRLKYSQNELEMIKKKHLATFYREQSQLQSELLNIDSQCTMLSEGINKQQQKIEEFQDKIDEVEDDIFQDFCEEIGVENIREFENKHVKQQQENDQKRLEFEKQKTRLNIQLEYSRNQLKKKLNNIDTLKTTIQKGKEDIDNLKKTEEECLKIVEELMVKQEQIKEVLATQSSNIEKIHIQIEEERKKVLAVDREVGKLQKEVVIIQGSLEQKLLEKHNLLLDCKVQDIDISLVLGSLEDIIEMELTETESTQATADIYEKEASIQIDYSPLREDLKALQSDKEVEAHLTLLLQQVASQENTLLKTTAPNLRAQENLKTVRDKFQESADVFEASRKEARICRQEFEQVKRRRYDAFSQCFEHISVSIDQIYKKLCRNNSAQAFLSPENPEEPYLDGISYNCVAPGKRFMPMDNLSGGEKCVAALALLFAVHSFRPAPFFVLDEVDAALDNTNIGKVSSYIKEQSQEQFQMIIISLKEEFYSKADALIGVYPEHNECMFSHVLTLDLSKYPDTEDQEGSRSHRKPRVPRVSMSPKSPQSR
modifications: full-length
B1 was tested. Which “Average logFC” value did it give?
The value was −1.932.

What about the “M1-1 Log2 Median Normalized” value of the same molecule?
Its value is −1.931.

What about the “M1-2 Log2 Median Normalized” value of the same molecule?
Its value is −0.989.

What about the “M2-1 Log2 Median Normalized” value of the same molecule?
The value was −2.1915.

What about the “M2-2 Log2 Median Normalized” value of the same molecule?
The value was −1.967.

And the change?
The change was “down”.

B2: Q921T2 (protein, UniProt Q921T2 1-595, looked up)
chain: MAGERWQAEGPGEGWAIYVTPRAPIREGRRRLDPRNGDSSDAPAYGAHPSRRGRREVRFSEEPAEVYGDFEPRAAKERSPGGRRTPPEKFRPASAGEEVRESAYNLRSRPRRQRRAQEAEEMKTRRSARLEQHSQQPQLSPATSGRGLRDSPSSSEDREEDEPSSRPVTSQTASKKTLRTPEASVMNEDPISNLCRPPLRSPRLDSTYQTNGNTKTNEREATIVQQVNFFEEGETEDDLESSYSDITIRARSSDSLESRDEATPAAGNHPDSLRGLPHNQDFPAHENQPLLLTSGCQENPQEWVDRAVRMRSRMAYNNIQKSNFGNQSPSTSRPQSAIHHPNEPSVKIKWWLLGLVAILAVGLFWFFHTPAVETTAVQEFQNQMKQLQSKYQSQNEKLWKRGTTFLEKHLNSSLPRPQPAILLLTAAQDAAEVLKCLSEQIADAYSSFRSVRAIRIDGAGKAAQDSDLVKHEVDQELTDGFKNGQNAAVVHRFESLPAGSTLIFYKYCDHENAAFKDVALVLTVLLEEKTLEASLGLKEIEEKVRDFLKVKFTSSSTASSYNHMDPDKLNGLWSRISHLVLPVQPENTLKAGSCL
modifications: full-length
For B2, which “Average logFC” value is on record?
Its value is 1.217.

What about the “M1-1 Log2 Median Normalized” value of the same molecule?
Its value is 1.233.

What about the “M1-2 Log2 Median Normalized” value of the same molecule?
The value was 1.176.

What about the “M2-1 Log2 Median Normalized” value of the same molecule?
Its value is 1.0935.

And the “M2-2 Log2 Median Normalized” value?
The value was 1.365.

And the change?
Its change is “up”.

B3: Q91WU0 (protein, UniProt Q91WU0 1-561, looked up)
chain: MFLSTLFLVSLATCVICGNPSSPPVVDTAHGKVLGKHVNVEGFSQPVAVFLGIPFAKPPLGSLRFAPPQPAEPWSSVKNATTYPPMCSQDAARGQAVNDLITNRKEKIHLEFSEDCLYLNIYTPADFSKNSRLPVMVWIHGGGLKLGGASSFDGRALSAYENVVVVAIQYRLSIWGFFSTGDEHSRGNWGHLDQVAALHWVQDNIANFGGDPGSVTIFGESAGGYSVSILILSPLSKNLFHRAISESGVAFIPGMFTKDVRPITEQIAVTAGCKTTTSAVIVHCMRQKTEEELLEIMHKLNLYKLSLQGDTKNSDQFVTSVLDGVVLPKDPKEILAEKNFNTVPYIVGINKQECGWLLPTMTGFLPADVKLDKKKAIALLEQFASMTGIPEDIIPVAVEKYTKGSDDPDQIREGVLDAMGDVAFGVPSVIVSRGHRDTGAPTYMYEYQYYPSFSSPQRPKNVVGDHADDVYSVFGAPILREGASEEEINLSKMVMKFWANFARNGNPNGKGLPHWPKYDQKEGYLHIGGTTQQAQRLKEEEVTFWTQSLAKKQPQPYHNEL
modifications: full-length
With B3 as the molecule, how does the “Average logFC” value read?
Its value is −1.598.

And the “M1-1 Log2 Median Normalized” value?
Its value is −1.5.

And the “M1-2 Log2 Median Normalized” value?
The value was −1.991.

And the “M2-1 Log2 Median Normalized” value?
Its value is −2.4445.

And the “M2-2 Log2 Median Normalized” value?
Its value is −0.456.

What about the change of the same molecule?
Its change is “down”.

B4: Q91Y74 (protein, UniProt Q91Y74 1-333, looked up)
chain: MTSKSHWKLLALALVLVVVMVWYSISREDRYIEFFYFPISEKKEPCFQGEAERQASKIFGNRSREQPIFLQLKDYFWVKTPSTYELPFGTKGSEDLLLRVLAITSYSIPESIKSLECRRCVVVGNGHRLRNSSLGGVINKYDVVIRLNNAPVAGYEGDVGSKTTIRLFYPESAHFDPKIENNPDTLLVLVAFKAMDFHWIETILSDKKRVRKGFWKQPPLIWDVNPKQVRILNPFFMEIAADKLLSLPIQQPRKIKQKPTTGLLAITLALHLCDLVHIAGFGYPDASNKKQTIHYYEQITLKSMAGSGHNVSQEAIAIKRMLEMGAVKNLTYF
modifications: full-length
What does the source list for B4?
Average logFC: −1.232; M1-1 Log2 Median Normalized: −0.783; M1-2 Log2 Median Normalized: −1.258; M2-1 Log2 Median Normalized: −1.9425; M2-2 Log2 Median Normalized: −0.946; change: down

B5: Q8WUR0 (protein, UniProt Q8WUR0 1-141, looked up)
chain: MPIMVDDIMRLLCSISQERKMKAAVKHSGKGAMVAGAMAFVGGLVGGPPGIAVGGTVGGLLGAWMTSGQFKPVPQILMELPPAEQRKLVNEAMAIIGNLDWTDAVQLTALVMSNQAMQQRLLAMLTTYVTKELQAEIRYED
modifications: full-length
Which “Average logFC” value does the source give for B5 here?
The value was −1.514.

And the “M1-1 Log2 Median Normalized” value?
The value was −0.949.

What about the “M1-2 Log2 Median Normalized” value of the same molecule?
The value was −1.798.

And the “M2-1 Log2 Median Normalized” value?
The value was −1.4995.

What about the “M2-2 Log2 Median Normalized” value of the same molecule?
Its value is −1.811.

What about the change of the same molecule?
The change was “down”.

B6: Q921X9 (protein, UniProt Q921X9 1-517, looked up)
chain: MARAWGLLLAIGVVLPTWLSSTKVSSLIERISDPKDLKKLLRTRNNVLVLYSESEVAAESHLKLLSTVAQAVKGQGTVCWVDCGDAESRKLCKKMKVDLSPKDKKIELFHYQDGAFHMQYDRAVTLKSIVAFLKDPKGPPLWEEDPGAKDVVHIDSEKDFRRLLKREEKPLLMMFYAPWCSMCKRIMPHFQKAATQVRGHIVLAGMNVYPSEFENIKEEYNVRGYPTICYFEKGRFLFPYENYGSTAEDIVEWLKNPLPPQPQVPETPWADEGGSVYHLTDEDFDQFVKEHSSVLVMFHAPWCGHCKKMKPEFESAAEVLHGDAESSGVLAAVDATVNEALAGRFHISAFPTLKYFKNGEQQAVPALRTKKKFIEWMQNPEAPPPPEPTWEEQQTSVLHLVGDNFRDTLKKKKHTLVMFYAPWCPHCKKVIPHFTATADAFKEDRKIACAAVDCVKDKNQDLCQQEAVKAYPTFHYYHYGKLVEKYESDRTELGFTSFIRTLREGDLKRLEKRREEL
modifications: full-length
What does the source list for B6?
Average logFC: 1.302; M1-1 Log2 Median Normalized: 1.535; M1-2 Log2 Median Normalized: 1.138; M2-1 Log2 Median Normalized: 1.0115; M2-2 Log2 Median Normalized: 1.523; change: up

B7: Q8VI93 (protein, UniProt Q8VI93 1-1138, looked up)
chain: MDLFHTPAGALDKLVAHNLHPAPEFTAAVRGALGSLNITLQQHRARGSQRPRVIRIAKGGAYARGTALRGGTDVELVIFLDCFQSFGDQKTCHSETLGAMRMLLESWGGHPGPGLTFEFSQSKASRILQFRLASADGEHWIDVSLVPAFDVLGQPRSGVKPTPNVYSSLLSSHCQAGEYSACFTEPRKNFVNTRPAKLKNLILLVKHWYHQVQTRAVRATLPPSYALELLTIFAWEQGCGKDSFSLAQGLRTVLALIQHSKYLCIFWTENYGFEDPAVGEFLRRQLKRPRPVILDPADPTWDVGNGTAWRWDVLAQEAESSFSQQCFKQASGVLVQPWEGPGLPRAGILDLGHPIYQGPNQALEDNKGHLAVQSKERSQKPSNSAPGFPEAATKIPAMPNPSANKTRKIRKKAAHPKTVQEAALDSISSHVRITQSTASSHMPPDRSSISTAGSRMSPDLSQIPSKDLDCFIQDHLRPSPQFQQQVKQAIDAILCCLREKSVYKVLRVSKGGSFGRGTDLRGSCDVELVIFYKTLGDFKGQKPHQAEILRDMQAQLRHWCQNPVPGLSLQFIEQKPNALQLQLASTDLSNRVDLSVLPAFDAVGPLKSGTKPQPQVYSSLLSSGCQAGEHAACFAELRRNFINTCPPKLKSLMLLVKHWYRQVVTRYKGGEAAGDAPPPAYALELLTIFAWEQGCGEQKFSLAEGLRTILRLIQQHQSLCIYWTVNYSVQDPAIRAHLLCQLRKARPLVLDPADPTWNVGQGDWKLLAQEAAALGSQVCLQSGDGTLVPPWDVTPALLHQTLAEDLDKFISEFLQPNRHFLTQVKRAVDTICSFLKENCFRNSTIKVLKVVKGGSSAKGTALQGRSDADLVVFLSCFRQFSEQGSHRAEIISEIQAHLEACQQMHSFDVKFEVSKRKNPRVLSFTLTSQTLLDQSVDFDVLPAFDALGQLRSGSRPDPRVYTDLIHSCSNAGEFSTCFTELQRDFITSRPTKLKSLIRLVKYWYQQCNKTIKGKGSLPPQHGLELLTVYAWEQGGQNPQFNMAEGFRTVLELIVQYRQLCVYWTINYSAEDKTIGDFLKMQLRKPRPVILDPADPTGNLGHNARWDLLAKEATVYASALCCVDRDGNPIKPWPVKAAV
modifications: full-length
Which results are given for B7?
Average logFC: 1.461; M1-1 Log2 Median Normalized: 1.378; M1-2 Log2 Median Normalized: 0.979; M2-1 Log2 Median Normalized: 1.6325; M2-2 Log2 Median Normalized: 1.853; change: up

Reference: US11994512B2, “Single-cell genomic methods to generate ex vivo cell systems that recapitulate in vivo biology with improved fidelity” (Massachusetts Institute of Technology, priority 2018, dated 2024)
